Test results from ChEMBL document CHEMBL1122728, “Derivatives of 2-methyl-1,4-naphthoquinone as substrates and inhibitors of the vitamin K dependent carboxylase” (J Med Chem, 1984).
Values joined by “and” are separate entries in the source; they are usually repeats but may differ in a detail not shown here. Equal values may be shown once.

Key:
[1] = compound: COC(=O)[C@H](CC(C)C)NC(=O)[C@H](CCC(=O)O)NC(=O)[C@H](CCC(=O)O)NC(=O)CCCC1=CC(=O)c2ccccc2C1=O; assay: (§1) In vitro inhibitory effect Vitamin K dependent carboxylase of Phe-Leu-Glu-Glu-Leu in rat microsomal protein; type: microsomes; details: Microsome
[2] = compound: COC(=O)[C@H](CC(C)C)NC(=O)[C@H](CCC(=O)O)NC(=O)[C@H](CCC(=O)O)NC(=O)CCCC1=C(C)C(=O)c2ccccc2C1=O; assay: as §1; type: microsomes; details: Microsome

B1: Vitamin K-dependent gamma-carboxylase (Rattus norvegicus), O88496 (protein)
chain: MAVHRGSARAAPASDKVQKNKPAQTSGLEQGSRMARIFGFEWADLSSWQSVVTLLNRPTDPANLAVFRFLFAFLMLLDIPQERGLSSLDRKYLDGLDVCRFPLLDALRPLPLDWMYLVYTIMFLGALGMMLGLWYRLSCMLFLLPYWYVFLLDKTSWNNHSYLYGLLAFQLTFMDANHYWSVDGLLSAQKKNAHVPLWNYTVLRGQIFIVYFIAGVKKLDADWVEGYSMEHLSRHWLFSPFKLVLSEELTSLLVVHWCGLLLDLSAGFLLFFDASRPIGLVFVSYFHCMNSQLFSIGMFPYVMLASSPLFCSAEWPRKLVARCPKRLQELLPAKAAPRPSASCVYKRARAKAGQKPGLRHHLGTVFTLLYLLEQLFLPYSHFLTQGYNNWTNGLYGYSWDMMVHSRSHQHVKITYRDGLTGELGYLNPGVFTQSRRWKDHADMLKQYATCLSLLLPKYNVTEPQIYFDIWVSINDRFQQRLFDPRVDIVQAVWSPFRRTPWVQPLLMDLSPWRTKLQDIKSSLDNHTEVVFIADFPGLHLENFVSEDLGNTSIQLLQGEVTVELVAEQKNQTLREGEKMQLPAGEYHKVYTVSSSPSCYMYIYVNTTEVALEQDLAYLQELKEKVENGSETGPLPPELQPLLEGEVKGGPEPTPLVQTFLRRQRKLQEIERRRNSPLHERFLRFVLRKLYVFRRSFLMTRISLRNLLFGRPSLEQLAQEVTYANLRPFEPVDESSASNTDSSDPHPSEPDSEHVHSEL
- Km [1]: 85 µM
- Km [2]: 44 µM and < 50 µM
